The record followed here is FireProtDB (doi:10.1021/bi050142b).

For the series the following is noted: Kitasatospora aureofaciens, 30 °C, GdnHCl, reversible: yes (>98%), whole UniProt chain shown.

B1: Guanyl-specific ribonuclease Sa wild type, P05798 (protein)
chain: DVSGTVCLSALPPEATDTLNLIASDGPFPYSQDGVVFQNRESVLPTQSYGYYHEYTVITPGARTRGTRRIITGEATQEDYYTGDHYATFSLIDQTC
As for B1, the denaturant m value by setting is: (pH 5.5, CD, None) 2.32 kcal/mol/M; (pH 5.9, CD, None) 2.3 kcal/mol/M. For the same protein, the unfolding free energy is 7.5 kcal/mol (pH 5.5, CD, None); 2.82 kcal/mol (pH 5.5, NMR hydrogen exchange); 6.7 kcal/mol (pH 5.9, CD, None).
